Assay results: patent US20220120736A1, “METHODS AND ASSAYS FOR MODULATING GENE TRANSCRIPTION BY MODULATING CONDENSATES” (Whitehead Institute for Biomedical Research, priority 2018, published 2022)
Where no end group is shown, it is not given here.

What was measured:
MED1-GFP condensates = test: FRAP of MED1-GFP condensates in mESCs; type: cell-based, mouse; details: ectopic expression in mESCs, untreated
Description: ATP depletion: Cells were cultured for 2 hours in glucose-free DMEM (Gibco, 11966025) supplemented with 0.5× B27 supplement and 0.5× N2 supplement followed by incubation with 5 mM 2-deoxy-glucose (Sigma, D6134) and 126 nM Oligomycin (Sigma, 75351) for 2 hours. Cellular ATP levels were measured using a bioluminescence assay (Invitrogen, A22066) following manufacturer's instructions. Cells expressing fluorescently tagged proteins were imaged ever 1 s for 20 s at a 100× objective on the Andor Revolution Spinning Disk Confocal, […] system and Metamorph acquisition software (W.M. Keck Microscopy Facility, MIT). One or two images were pre-bleach and on then approximately 0.5 μm^2 was bleached with the 488 nm laser of the quantifiable laser module (QLM). FRAP was performed on selecting region of interest with 5 pulses of 20 μs each. For FRAP analysis, florescence recovery was measured as fluorescence intensity of photobleached area normalized to the intensity of the unbleached area or the entire nucleus. Fluorescence intensity was measured with FIJI FRAP profiler plugin (code written by Jeff […], adapted from Tony Collins' Macbiophotonics plugins, available here: //worms.zoology.wisc.edu/research/4d/4d.html

MED1-IDR droplets = target: T1, MED1-IDR droplets (Homo sapiens, UniProt Q15648); test: In vitro droplet assay, TMR-labeled decapeptides with MED1-IDR-GFP; type: biochemical; details: 10 uM each, 125 mM NaCl, 10% PEG-8000
T1 construct: pETEC-MED1-IDR-GFP; Sabari et al., 2018; 948-1574; 6xHis (N); made in house; host or cells: E. coli LOBSTR
Description: Recombinant GFP or mCherry fusion proteins were concentrated and desalted to an appropriate protein concentration and 125 mM NaCl using Amicon Ultra centrifugal filters (30K MWCO, Millipore). Recombinant proteins were added to solutions at varying concentrations with indicated final salt and 10% PEG-8000 as crowding agent in Droplet Formation Buffer (50 mM Tris-HCl pH 7.5, 10% glycerol, 1 mM DTT). The protein solution was immediately loaded onto a homemade chamber comprising a glass slide with a coverslip attached by two parallel strips of double-sided tape. Slides were then imaged with an Andor confocal microscope with a 150× objective. Unless indicated, images presented are of droplets settled on the glass coverslip. For experiments with fluorescently labeled polypeptides, the indicated decapeptides were synthesized by the Koch Institute/MIT Biopolymers & Proteomics Core Facility with a TMR fluorescent tag. The protein of interest was added Buffer D with 125 mM NaCl and 10% Peg-8000 with the indicated polypeptide and imaged as described above. For FRAP of in vitro droplets 5 pulses of laser at a 50 us dwell time was applied to the droplet, and recovery was imaged on an Andor microscope every is for the indicated time periods. […] One microliter of this concentrated stock was used in a 10 uL droplet formation reaction to achieve a final concentration of 10 uM.

[1] = In vitro homotypic droplet formation assay; type: physicochemical
Description: Slides were then imaged on the Andor Revolution Spinning Disk Confocal using a 100× objective.
The CDK8-Mediator samples were purified as described (Meyer et al., 2008) with modifications. Prior to affinity purification, the P0.5M/QFT fraction was concentrated, to 12 mg/mL, by ammonium sulfate precipitation (35%). […] Affinity purification was carried out as described (Meyer et al., 2008), eluted material was loaded onto a 2.2 mL centrifuge tube containing 2 mL 0.15M KCl HEMG (20 mM HEPES, 0.1 mM EDTA, 2 mM MgCl2, 10% glycerol) and centrifuged at 50K RPM for 4 h at 4° C. This served to remove excess free GST-SREBP and to concentrate the CDK8-Mediator in the final fraction. Prior to droplet assays, purified CDK8-Mediator was concentrated using Microcon-30 kDa Centrifugal Filter Unit with Ultracel-30 membrane (Millipore MRCFOR030) to reach ˜300 nM of Mediator complex. Concentrated CDK8-Mediator was added to the droplet assay to a final concentration of ˜200 nM with or without 10 μM indicated GFP-tagged protein. Droplet reactions contained 10% PEG-8000 and 140 mM salt.
Proteins were stored in 10% glycerol, 50 mM Tris-HCl pH 7.5, 500 mM NaCl, 1 mM DTT. Amicon Ultra Centrifugal filters (30K or 50K MWCO, Millipore) were used to concentrate proteins to desired concentrations. […] Droplet assays were performed in 8-tube PCR strip. […]

MED1-IDR-mCherry = target: T2, MED1-IDR-mCherry (human, UniProt Q15648 948-1574); test: in vitro droplet assay, 10 uM each, 125 mM NaCl, 10% PEG-8000
T2 construct: Recombinant from E. coli; Lacks the LXXLL motifs; also called mCherry-MED1-IDR

MED1-IDR-GFP = target: T3, MED1-IDR-GFP (human, UniProt Q15648 948-1574); test: in vitro droplet assay with TMR-labeled decapeptide, 125 mM NaCl, 10% PEG-8000
T3 construct: Recombinant from E. coli
Description: All 17 acidic residues in the N-AD and 6 acidic residues in the C-AD were mutated to alanine to generate an OCT4-acidic mutant.

HCT116 cells = test: FRAP of endogenously tagged mEGFP-β-catenin in HCT116 cells; type: cell-based; details: nuclear puncta, constitutive WNT-activated HCT116 cells
Description: FRAP was performed on LSM880 Airyscan microscope with 488 nm laser. Bleaching was performed over a rbleach≈1 um using 100% laser power and images were collected every two seconds. Fluorescence intensity was measured using FIJI. Background intensity was subtracted and values are reported relative to pre-bleaching time points.
Custom MATLAB™ scripts were written to process the intensity data, accounting for background photobleaching and normalization to pre-bleach intensity. Post bleach FRAP recovery data was averaged over 9 replicates for each cell-line and condition.

MED1-GFP: full-length human MED1 fused to mEGFP, ectopically expressed in mESCs
apparent diffusion coefficient (MED1-GFP condensates): 0.36±0.13 μm2/s

Poly-E: TMR labeled glutamic acid decapeptide
incorporation of TMR labeled decapeptide into MED1-IDR droplets (MED1-IDR droplets): incorporated into MED1-IDR droplets
incorporation of TMR labeled decapeptide into MED1-IDR droplets (MED1-IDR droplets; listed as glutamic acid peptides): concentrated within

Poly-P: TMR labeled proline decapeptide (PPPPPPPPPP; also: TMR labeled, site not given here)
incorporation of TMR labeled decapeptide into MED1-IDR droplets (MED1-IDR droplets): not incorporated into MED1-IDR droplets

GCN4: purified recombinant yeast GCN4-GFP
concentration at which micron-sized droplets form alone ([1]; 125 mM NaCl, 10% PEG-8000): 40 µM

B1: ER-GFP (receptor, not shown: large carriers; small tags and cut ends)
chain: MTMTLHTKASGMALLHQIQGNELEPLNRPQLKIPLERPLGEVYLDSSKPAVYNYPEGAAYEFNAAAAANAQVYGQTGLPYGPGSEAAAFGSNGLGGFPPLNSVSPSPLMLLHPPPQLSPFLQPHGQQVPYYLENEPSGYTVREAGPPAFYRPNSDNRRQGGRERLASTNDKGSMAMESAKETRYCAVCNDYASGYHYGVWSCEGCKAFFKRSIQGHNDYMCPATNQCTIDKNRRKSCQACRLRKCYEVGMMKGGIRKDRRGGRMLKHKRQRDDGEGRGEVGSAGDMRAANLWPSPLMIKRSKKNSLALSLTADQMVSALLDAEPPILYSEYDPTRPFSEASMMGLLTNLADRELVHMINWAKRVPGFVDLTLHDQVHLLECAWLEILMIGLVWRSMEHPGKLLFAPNLLLDRNQGKCVEGMVEIFDMLLATSSRFRMMNLQGEEFVCLKSIILLNSGVYTFLSSTLKSLEEKDHIHRVLDKITDTLIHLMAKAGLTLQQQHQRLAQLLLILSHIRHMSNKGMEHLYSMKCKNVVPLYDLLLEMLDAHRLHAPTSRGGASVEETDQSHLATAGSTSSHSLQKYYITGEAEGFPATV
notes: Tested without ligand, with estrogen (beta-estradiol) and with tamoxifen (4-hydroxytamoxifen); also called estrogen receptor; GFP labeled ER
binding result (MED1-IDR-mCherry): binds

PPPPPPPPPP (also: TMR fluorescent tag, site not given here, also called proline decapeptide) [TMR-Poly-P Peptide]
binding result (MED1-IDR-GFP): no binding (tested: 10 uM)

B2: MED1-IDR: recombinant GFP fusion of the MED1 intrinsically disordered region (948-1574) (protein)
chain: EHHSGSQGPLLTTGDLGKEKTQKRVKEGNGTSNSTLSGPGLDSKPGKRSRTPSNDGKSKDKPPKRKKADTEGKSPSHSSSNRPFTPPTSTGGSKSPGSAGRSQTPPGVATPPIPKITIQIPKGTVMVGKPSSHSQYTSSGSVSSSGSKSHHSHSSSSSSSASTSGKMKSSKSEGSSSSKLSSSMYSSQGSSGSSQSKNSSQSGGKPGSSPITKHGLSSGSSSTKMKPQGKPSSLMNPSLSKPNISPSHSRPPGGSDKLASPMKPVPGTPPSSKAKSPISSGSGGSHMSGTSSSSGMKSSSGLGSSGSLSQKTPPSSNSCTASSSSFSSSGSSMSSSQNQHGSSKGKSPSRNKKPSLTAVIDKLKHGVVTSGPGGEDPLDGQMGVSTNSSSHPMSSKHNMSGGEFQGKREKSDKDKSKVSTSGSSVDSSKKTSESKNVGSTGVAKIIISKHDGGSPSIKAKVTLQKPGESSGEGLRPQMASSKNYGSPLISGSTPKHERGSPSHSKSPAYTPQNLDSESESGSSIAEKSYQNSPSSDDGIRPLPEYSTEKHKKHKKEKKKVKDKDRDRDRDKDRDKKKSHSIKPESWSKSPISSDQSLSMTSNTILSADRPSRLSPDFMIGEEDDDLM
modifications: left off: large carriers; small tags and cut ends
lowest concentration tested, at which droplets were observed ([1]; droplet formation buffer with 10% PEG-8000, range tested 0.6 to 20 μM): 0.6 µM

B3: β-catenin: mEGFP-tagged β-catenin at the endogenous locus in HCT116 cells (protein)
chain: ATQADLMELDMAMEPDRKAAVSHWQQQSYLDSGIHSGATTTAPSLSGKGNPEEEDVDTSQVLYEWEQGFSQSFTQEQVADIDGQYAMTRAQRVRAAMFPETLDEGMQIPSTQFDAAHPTNVQRLAEPSQMLKHAVVNLINYQDDAELATRAIPELTKLLNDEDQVVVNKAAVMVHQLSKKEASRHAIMRSPQMVSAIVRTMQNTNDVETARCTAGTLHNLSHHREGLLAIFKSGGIPALVKMLGSPVDSVLFYAITTLHNLLLHQEGAKMAVRLAGGLQKMVALLNKTNVKFLAITTDCLQILAYGNQESKLIILASGGPQALVNIMRTYTYEKLLWTTSRVLKVLSVCSSNKPAIVEAGGMQALGLHLTDPSQRLVQNCLWTLRNLSDAATKQEGMEGLLGTLVQLLGSDDINVVTCAAGILSNLTCNNYKNKMMVCQVGGIEALVRTVLRAGDREDITEPAICALRHLTSRHQEAEMAQNAVRLHYGLPVVVKLLHPPSHWPLIKATVGLIRNLALCPANHAPLREQGAIPRLVQLLVRAHQDTQRRTSMGGTQQQFVEGVRMEEIVEGCTGALHILARDVHNRIVIRGLNTIPLFVQLLYSPIENIQRVAAGVLCELAQDKEAAEAIEAEGATAPLTELLHSRNEGVATYAAAVLFRMSEDKPQDYKKRLSVELTSSLFRTEPMAWNETADLGLDIGAQGEPLGYRQDDPSYRSFHSGGYGQDALGMDPMMEHEMGGHHPGADYPVDGLPDLGHAQDLMDGLPPGDSNQLAWFDTDL
modifications: left off: large carriers; small tags and cut ends
notes: mEGFP-tagged β-catenin at the endogenous locus in HCT116 cells
approximate apparent diffusion coefficient (HCT116 cells): ~0.004±0.003 μm^2/s
